Assay: soluble on expression in E. coli; label from the status in PepcDB or PDB records

Sequence | soluble on expression in E. coli
MSLACGEFSLIARYFDRVRSSRLDVETGIGDDCALLNIPEKQTLAISTDTLVAGNHFLPDIDPADLAYKALAVNLSDLAAMGADPAWLTLALTLPEVDEPWLEAFSDSLFALLNYYDMQLIGGDTTRGPLSMTLGIHGYIPAGRALKRSGAKPGDWIYVTGTPGDSAAGLAVLQNRLQVSEETDAHYLIQRHLRPTPRILHGQALRDIASAAIDLSDGLISDLGHIVKASGCGARVDVDALPKSDAMMRHVDDGQALRWALSGGEDYELCFTVPELNRGALDVAIGQLGVPFTCIGQMSADIEGLNFVRDGMPVTFDWKGYDHFATPEGGSHHHHHH | soluble
MSLIDRYILAIESSCDETSVAILKNEDQLLSNIIASQVESHKRFGGVVPEVASRHHVEVITLCIQDALQEAGITAGDLSAVAVTYGPGLVGALLVGMAAAKAFAWANHLPLIPVNHMAGHLMAAQSIADLQYPLLALLVSGGHTELVYVAAPGDYRIVGETRDDAVGEAYDKVGRVMGLTYPAGKEIDQLAHQGQDIYDFPRAMIKEDNLEFSFSGLKSAFINLHHNARQKGEQLRLEDLCASFQAAVLDILMVKTKKALAAYPVKTLVIAGGVAANQGLRERLKEDIKDINVVIPPLRLCGDNAGMIAYAAAVEYEKGHFAELDLNAKPSLAFEGLEEGHHHHHH | soluble
MAHHHHHHMYGPSFSQTVLVAATPVVMKSPPTFFKGGNFRRISRRSTLKTTPERVPRNMYQFIVGSPSGELGHHSMDVMVSVQETVIDSGITQMCCSMLKNRRRRSLWRVTYVFGNSGDTLYNCRALSIDGLARRSMRPSPVPPDKLLSSAALIPFSVPRDFFIVFN | not soluble
VTPELDEREQEVIVRSAINQFEGFIKLNKKIPPEVLTSLNGIDEAARLADTIAAHMPLKLVDKQQVLEIIDVTERLEFLMGQMESEIDLLQVEKRIRGRVKKQMEKSQREYYLNEQMKAIQKELGEMEDAPDEFETLQKKIDESKMPQEAREKTEQELQKLKMMSPMSAEATVVRSYIDWMVSVPWTKRSKVKKNLAKAEEILNEDHYGLERVKERILEYLAVQNRINKLKGPILCLVGPPGVGKTSLGRSIASATGRKYVRMALGGVRDEAEIRGHRRTYIGSLPGKLIQKMSKVGVKNPLFLLDEIDKMSSDMRGDPASALLEVLDPEQNNSFNDHYLEVDYDLSDVMFVATSNSMNIPGPLLDRMEVIRL | not soluble
MTDNQSKSLELILTDSDDAHMLLGTHDKHIKFLEENTHVTINSRGEVIQLIGESSEVELVASVLRALQTLIQRGIKVHTPDVVSALKMAKAGNLEAFIAMYEEEIMKDHHGRAIRIKNVGQKKYIDAVKTHDVIFGVGPAGTGKTFLAVVMAVAALKKGEVQKIILTRPAVEAGESLGFLPGDLKEKVDPYLRPVYDALYQIFGMDHTNRLMERGVIEIAPLAYMRGRTLDDAFVILDEAQNTTVAQMKMFLTRLGFSSKMIVNGDTSQIDLPRGVTSGLVNAERTLKDIEKIAFVNFEASDVVRHPVVAQIIQAYEKEQQKHS | not soluble
MARTVNLKGNPVTLVGPELKVGDRAPEAVVVTKDLQEKIVGGAKDVVQVIITVPSLDTPVCETETKKFNEIMAGMEGVDVTVVSMDLPFAQKRFCESFNIQNVTVASDFRYRDMEKYGVLIGEGALKGILARAVFIIDKEGKVAYVQLVPEITEEPNYDEVVNKVKELI | not soluble
MAHHHHHHMEEGGRYAACKAELYKLQEKIKTQETPRDNCAEKEKMWEKQRSELEQEKDECLRTSDAHRTQKQDLEDRVRYMDGLTRAMISEKRFAEERRNISEKENEDLKTRVRVLTHKLGVLTAMVQKLHISHMIKDMGIAMLQAEAKQAAEEMETNHKKDVAAAEERVLQECKEKFCFDSSGNLNAAVFIEHNISKENRSFLLEQLNCSKENQGDTKREWRFWRKGANDSSRPKKSADHSESNGSSHGNNIHLVLRVCLSLLLLTALS | not soluble
MDIFMTCSICGFTHNCICAHQPNLSSNIEFALLYHENERHKLTNTGKLLLNSLSNTTEYTWQRKEPPQALISKINQADTETWLLFPSKEPVLSSDFHHRHDPSKKQLFVLLDATWQEAKKMVNKSPWLKALPCLEIQTDEASRYHLRRNQSEGNLCTCEAGIEVLEMVKEPENAQALSCYYDQFLTVFQAERSGHKFTSLEHHHHHH | soluble
